Assays:
[1] = molecular target: PKC-α (Homo sapiens, UniProt P17252); experiment: Competitive binding assay using cell extracts (Western blot); set-up: key to Affinity for PKC isoform α: —: no detectable affinity; Low to very low affinity at 10X or 20X or both PRE concentrations in at least one cell line in the cell extract assay; Low affinity in purified isoform assay.; Moderate affinity at 10X or 20X or both PRE concentrations in at least one cell line in the cell extract assay.; High affinity at 10X or 20X or both PRE concentrations in at least one cell line in the cell extract assay; High affinity in purified isoform assay; details: for Affinity for PKC isoform α: Cell extract, PRE at 10X, 20X antibody concentration, Table 20
Experimental: Binding efficiency and specificity of the peptides PRE 2, 3, 4, 5, 6, 7, 8, 9, 10, 11, 12 and 13 (see Table 3) was also tested using cytoplasmic extracts from different cell lines expressing appropriate PKC isoforms as described for Example 1. Briefly, the protein cytoplasmic extracts were separated by electrophoresis and transferred onto nitrocellulose membranes by standard Western blotting procedures. The bands on the Western blots were detected with matching primary antibodies and alkaline phosphatase conjugated secondary antibody. The bands were then scanned and the relative density measurements obtained.
This procedure to assess the binding characteristics of the PREs is based on competition binding of the PRE with the primary anti-isoform PKC specific antibodies. The lower the measured band density, the greater the binding of the PRE to the PKC isoform. The PREs were added at 10 and 20 times (10×, 20×) the primary antibody concentration, according to classical competition between antigenic peptide and primary antibody. The following cell lines (obtained from the ATCC) were used: H661—NCI human lung carcinoma NSCLC; MDAMB231—human highly invasive breast cancer cell line from pleural effusion; LS180—human colon adenocarcinoma; LnCAP—human prostate adenocarcinoma; CCD16Lu—human lung fibroblasts; Du145—human prostate carcinoma brain metastasis, and T24—human bladder carcinoma.
In these cases, the 20× band density figures relative to control and 10× values were reliable.

[2] = molecular target: PKC-βI (Homo sapiens, UniProt P05771); experiment: ELISA-based competitive binding assay with purified PKC isoform; set-up: key to Affinity for PKC isoform βI: —: no detectable affinity; Low to very low affinity at 10X or 20X or both PRE concentrations in at least one cell line in the cell extract assay; Low affinity in purified isoform assay.; Moderate affinity at 10X or 20X or both PRE concentrations in at least one cell line in the cell extract assay.; High affinity at 10X or 20X or both PRE concentrations in at least one cell line in the cell extract assay; High affinity in purified isoform assay; details: for inhibition at 50 µM / inhibition at 100 µM / inhibition at 200 µM / calculated binding capacity (100-% n) after subtraction of the DMSO apparent binding capacity: purified PKC-βI; for inhibition at 50 µM / inhibition at 100 µM / inhibition at 200 µM: read-out: calculated binding capacity (100-% n) after subtraction of the DMSO apparent binding capacity; for Affinity for PKC isoform βI: Purified isoform, Table 20; for targeting of PKC-βI: purified isoform, Tables 14-19
Experimental: Peptides PRE 1, 2, 3, 4, 5, 6, 7, 8, 9, 10, 11, 12 and 13 (see Table 3) were tested for their ability to interfere with binding of PKC isoform-specific antibodies to their target PKC isoforms using a competitive binding assay and purified PKC isoforms.
Procedure: Competitive binding was assessed using a 96 well plate ELISA-based assay as described below.
Greiner 96 well ELISA plates were coated with the appropriate PKC isoform diluted in PBSN (PBS with Calcium/Magnesium+0.05% Sodium azide w/w). 50 μL/well at 250 ng/mL was used. Control wells contained PBSN only. Plates were incubated overnight at 4° C.
The plates were washed 3 times with 200 μL of dH2O per well, then 100 μL of blocking solution was added per well and the plate incubated for 1 h at 37° C. The washing steps with dH2O were repeated and 50 μL of the appropriate PRE solution (PRE stock solution [20 mM in DMSO] diluted in PBSN) was added and the plate incubated for 1 h at room temperature.
After incubation, 5 μL of 1.1:400 anti-PKC (isoform specific antibody) was added per well (to provide a final concentration of 1:4000). For PKC-epsilon, 1.1:800 dilution was used and for PKC-zeta a 1.1:100 dilution was used due to high and low binding affinity, respectively. The plates were then incubated 1 h at room temperature, followed by washing with dH2O as described above.
50 μL of 1:1000 dilution of Alkaline Phosphatase (AP) conjugated antibody (anti-rabbit for all except zeta, which was anti-goat) was then added and the plate incubated for 1 h at room temperature. Washing with dH2O was then repeated. Finally, 100 μL of pNPP solution in pNPP buffer (2 mM MgCl2, 100 mM Sodium bicarbonate in water, pH 9.8) was added to all wells and incubated for 8 minutes for α, βI, βII ε, and ζ, or for 15-20 mins for […] (until sufficient coloration is observed). The reaction was stopped by addition of Stop solution (2N NaOH) and the absorbance at 405 nm was read on a Galaxy Plate reader.
Controls were PKC without PRE; blank controls, and controls containing the final concentrations of DMSO used for solubilizing the PREs. The non-specific binding capacity related to DMSO was also measured.
The antibodies used were as follows: anti-PKC α (Cat. No. SC-208); anti-PKC βI (Cat. No. SC-209); anti-PKC βII (Cat. No. SC-210); anti-PKC δ (Cat. No. SC-213); anti-PKC ε (Cat. No. SC-214); anti-PKC ζ (Cat. No. SC-216-G) (all from Santa Cruz Biotechnology, Inc.). The AP-conjugated antibodies were obtained from Jackson Immuno Research Laboratories (West Grove, Pa.).
Calculations: The OD values measured at 405 nm represent the free PKC coated per well.
OD405 PKC alone−Blank OD405 of each sample=OD405 coated isoform
(OD405 of sample X/OD405 coated isoform)×100=% n that represents the percentage of X binding compared to control.
100-% n measures the relative binding capacity of X towards the tested isoform.
The apparent binding capacity of the DMSO samples was then subtracted from X binding capacity.
All measurements were made in triplicate and the values in the table represent the averaged calculated binding capacity values after subtraction of the DMSO apparent binding capacity (averaged from 12 values, respectively 10.80, 11.20 and 16.40 corresponding to the concentrations of DMSO used to dilute the […] at 200, 100 and 50 μM respectively). The results allow for quantitative comparison of the binding capacity of each PRE towards an individual isoform within each table, but not among isoforms due to differences in sensitivity of the specific antibodies toward the secondary antibody. This applies particularly to PKC-delta. As noted above, the colour development duration was increased 2-3 times and, as a result, the OD405 measurements may be overestimated for this isoform.

Chain of PKC-βI (P05771 whole entry, canonical isoform): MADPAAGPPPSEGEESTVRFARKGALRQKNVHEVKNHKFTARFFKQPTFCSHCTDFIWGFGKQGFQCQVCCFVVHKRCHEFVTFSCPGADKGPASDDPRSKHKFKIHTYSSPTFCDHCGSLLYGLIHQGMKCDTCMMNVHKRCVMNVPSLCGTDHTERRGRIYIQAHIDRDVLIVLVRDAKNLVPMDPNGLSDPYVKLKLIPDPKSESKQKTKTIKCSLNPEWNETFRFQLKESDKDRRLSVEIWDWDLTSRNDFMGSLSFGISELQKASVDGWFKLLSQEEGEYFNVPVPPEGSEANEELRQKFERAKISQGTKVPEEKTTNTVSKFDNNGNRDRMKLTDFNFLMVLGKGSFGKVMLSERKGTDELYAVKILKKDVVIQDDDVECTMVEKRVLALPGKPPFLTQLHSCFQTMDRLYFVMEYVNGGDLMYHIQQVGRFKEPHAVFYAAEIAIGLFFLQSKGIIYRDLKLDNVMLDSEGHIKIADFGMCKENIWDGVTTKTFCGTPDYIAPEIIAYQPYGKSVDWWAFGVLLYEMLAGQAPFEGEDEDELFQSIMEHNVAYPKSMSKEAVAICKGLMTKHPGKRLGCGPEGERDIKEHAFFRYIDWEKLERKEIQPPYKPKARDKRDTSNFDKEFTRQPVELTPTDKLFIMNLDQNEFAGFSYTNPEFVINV

Affinity for PKC isoform α [1]	inhibition at 50 µM ([2]; PRE 50 μM) [%]	inhibition at 100 µM ([2]; PRE 100 μM) [%]	inhibition at 200 µM ([2]; PRE 200 μM) [%]	Affinity for PKC isoform βI [2]	targeting of PKC-βI [2]	calculated binding capacity (100-% n) after subtraction of the DMSO apparent binding capacity ([2]; PRE 50 μM)	calculated binding capacity (100-% n) after subtraction of the DMSO apparent binding capacity ([2]; PRE 100 μM)	affinity for PKC-α ([1]; cell extracts)	calculated binding capacity (100-% n) after subtraction of the DMSO apparent binding capacity ([2]; PRE 200 μM)	Substance
H/L				—		3.77	4.35			Ac-ISIGILNQADK-NH2 [PRE 10]
H/L				L						Ac-KDANQLIGISI-NH2 [PRE 6]
—				—						Ac-KDAQNLI-NH2 [PRE 12]
H/L				—		9.86	14.23		12.5	Ac-RDAQNLIGISI-NH2 [PRE 11]

The remaining lines, values behind:

Substance	Affinity for PKC isoform α [1]	inhibition at 50 µM ([2]; PRE 50 μM) [%]	inhibition at 100 µM ([2]; PRE 100 μM) [%]	inhibition at 200 µM ([2]; PRE 200 μM) [%]	Affinity for PKC isoform βI [2]	targeting of PKC-βI [2]	calculated binding capacity (100-% n) after subtraction of the DMSO apparent binding capacity ([2]; PRE 50 μM)	calculated binding capacity (100-% n) after subtraction of the DMSO apparent binding capacity ([2]; PRE 100 μM)	affinity for PKC-α ([1]; cell extracts)	calculated binding capacity (100-% n) after subtraction of the DMSO apparent binding capacity ([2]; PRE 200 μM)
Ac-AKGIQEVKGGDAQNLIGISI-NH2 [PRE 3]	H	26	22.5	23	H	targeted most strongly				
Ac-AKGIQEVKGGKDAQNLIGISI-NH2 [PRE 5]	M	0	0	0	—					
Ac-ISIGILQNADK-NH2 [PRE 7]	L				—					
Ac-KDAQNLIGISI-NH2 [PRE 4, Ac-KDAQNLIGISI-NH2]	H	6.02	15.7	7.46	L				strong affinity for PKC-α	
Ac-RDAQNLI-NH2 [PRE 13]	M/H				—					
Ac-isigilgnadk-NH2 [PRE 9]	M/L				L		11.53	8.82		5.72
ILEDKGGDAQNLIGISI [PRE 8]	M/L				—					
RRKKGGKDFVVKR [PRE 1]	H				H	targeted most strongly				

— patent US20100041597A1, “PEPTIDES TARGETED TO PROTEIN KINASE C ISOFORMS AND USES THEREOF” (priority 2005, published 2010)
